Consider 1 molecule from patent US20240158474A1 (SINO BIOLOGICAL, published 2024).

Common to all, as to experiment: indirect ELISA, VLP coated at 2 µg/mL, antibody 10 ng/mL, HRP goat anti-rabbit Fc
Background: An ELISA detects its analyte on a solid surface through an enzyme-linked reagent.

The target of one test is T1, HPV35 VLP protein (human papillomavirus type 35; human …, UniProt P27232 1-472; P06416 474-499).
T1 construct: range 1-472;range 474-499; Complete VLP protein used as coating protein; also called HPV35L1(1-472L)+HPV33L1(474K-499K)
T1 sequence: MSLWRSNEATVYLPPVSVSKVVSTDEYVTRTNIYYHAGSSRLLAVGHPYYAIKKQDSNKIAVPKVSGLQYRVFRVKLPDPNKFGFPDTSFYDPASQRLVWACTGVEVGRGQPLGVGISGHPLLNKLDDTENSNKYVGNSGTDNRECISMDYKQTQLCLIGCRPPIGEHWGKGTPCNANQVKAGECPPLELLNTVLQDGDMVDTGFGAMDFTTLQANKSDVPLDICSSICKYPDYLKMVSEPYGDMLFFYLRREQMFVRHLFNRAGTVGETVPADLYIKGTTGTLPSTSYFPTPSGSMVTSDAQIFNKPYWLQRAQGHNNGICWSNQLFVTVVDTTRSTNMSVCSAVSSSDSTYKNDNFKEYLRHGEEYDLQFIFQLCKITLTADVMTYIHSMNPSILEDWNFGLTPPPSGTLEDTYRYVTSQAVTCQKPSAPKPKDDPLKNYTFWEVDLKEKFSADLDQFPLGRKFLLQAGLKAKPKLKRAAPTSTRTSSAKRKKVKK

The target of the next test is T2, HPV11 VLP protein (human papillomavirus type 11; human …, UniProt P04012 1-470; P06416 474-499).
T2 construct: range 1-470;range 474-499; Complete VLP protein used as coating protein
T2 sequence: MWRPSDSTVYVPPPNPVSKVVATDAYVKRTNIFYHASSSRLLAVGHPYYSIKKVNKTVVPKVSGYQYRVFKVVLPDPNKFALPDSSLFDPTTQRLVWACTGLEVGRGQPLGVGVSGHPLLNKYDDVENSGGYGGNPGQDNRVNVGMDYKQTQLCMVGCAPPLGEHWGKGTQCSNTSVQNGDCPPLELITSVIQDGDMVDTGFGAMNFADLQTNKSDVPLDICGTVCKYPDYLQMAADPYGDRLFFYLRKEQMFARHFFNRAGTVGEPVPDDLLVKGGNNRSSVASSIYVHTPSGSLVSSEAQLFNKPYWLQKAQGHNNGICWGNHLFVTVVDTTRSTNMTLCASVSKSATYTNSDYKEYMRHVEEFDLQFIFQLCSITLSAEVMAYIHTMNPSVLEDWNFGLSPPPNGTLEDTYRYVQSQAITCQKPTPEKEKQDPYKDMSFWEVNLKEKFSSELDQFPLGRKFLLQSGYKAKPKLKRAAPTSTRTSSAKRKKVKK

For another test, the target named is T3, HPV18 VLP protein (human papillomavirus type 18).
T3 construct: Complete VLP protein; no limits of the construct printed, whole entry named; also called P18SHELL

Another test addresses T4, HPV31 VLP protein (human papillomavirus type 31; human …, UniProt P17388 1-475; P06416 474-499).
T4 construct: range 1-475;range 474-499; Complete VLP protein used as coating protein; also called P31SHELL(1-475Y)+HPV33L1(474K-499K)
T4 sequence: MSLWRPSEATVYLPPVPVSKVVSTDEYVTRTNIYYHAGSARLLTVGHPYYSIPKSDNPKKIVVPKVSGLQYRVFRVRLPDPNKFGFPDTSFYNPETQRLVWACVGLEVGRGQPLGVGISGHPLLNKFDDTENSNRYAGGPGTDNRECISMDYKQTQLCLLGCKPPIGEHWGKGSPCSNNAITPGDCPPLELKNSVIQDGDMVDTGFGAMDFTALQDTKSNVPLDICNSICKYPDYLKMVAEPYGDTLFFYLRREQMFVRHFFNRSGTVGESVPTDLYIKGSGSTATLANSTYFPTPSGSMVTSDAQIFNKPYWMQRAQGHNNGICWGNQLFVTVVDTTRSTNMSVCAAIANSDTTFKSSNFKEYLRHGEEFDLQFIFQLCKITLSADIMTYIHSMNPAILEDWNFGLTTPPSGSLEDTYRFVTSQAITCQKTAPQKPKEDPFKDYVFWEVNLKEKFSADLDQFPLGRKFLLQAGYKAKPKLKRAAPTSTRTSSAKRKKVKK

A further test deals with T5, HPV16 VLP protein (human papillomavirus type 16, UniProt P03101 1-474).
T5 construct: Complete VLP protein; no limits of the construct printed, whole entry named; also called HPV-16L1
T5 sequence: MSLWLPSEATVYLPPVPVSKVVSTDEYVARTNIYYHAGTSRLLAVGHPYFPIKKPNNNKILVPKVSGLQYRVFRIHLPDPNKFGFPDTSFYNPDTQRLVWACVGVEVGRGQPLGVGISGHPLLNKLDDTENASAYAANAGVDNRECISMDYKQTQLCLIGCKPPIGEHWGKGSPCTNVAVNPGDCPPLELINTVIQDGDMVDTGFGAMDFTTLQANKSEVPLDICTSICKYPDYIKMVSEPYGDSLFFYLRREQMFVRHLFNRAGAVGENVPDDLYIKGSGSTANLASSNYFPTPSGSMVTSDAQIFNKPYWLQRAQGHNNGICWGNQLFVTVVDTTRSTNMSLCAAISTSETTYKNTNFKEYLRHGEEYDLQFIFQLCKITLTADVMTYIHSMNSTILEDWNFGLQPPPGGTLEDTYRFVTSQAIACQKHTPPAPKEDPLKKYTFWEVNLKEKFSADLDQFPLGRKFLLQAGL

B1: monoclonal antibody HPV6-R003 (antibody, V domains shown)
VH: QQQLEESGGGLVKPGGTLTLTCKASGIDLSNYYMCWVRQAPGKGLEWIGCIYTGSGRTYYASWAKGRFTISKASSTTVTLQMTSLTAADTATYFCARDYLGWRASNIWGPGTLVTVSS
VL: ELVMTQTPSSVSAAVGGTVTINCQASQSVYSNNLVWYQQKPGQPPKLLIYGASTLASGVPSRFKGSGSGTQFTLTISDVVCDDAATYYCGGYVSDSTDGTAFGGGTEVVVKG
notes: here built from variable plus constant region so that the signal peptides are left out; In the sandwich ELISA the same antibody is used as coating antibody and, labelled with horseradish peroxidase, as detection antibody; also called anti-HPV6 L1 protein antibody
In the case of B1, the OD450-blank with HPV35 VLP protein came to 0.048 OD450; with HPV11 VLP protein it was 0.053 OD450; with HPV18 VLP protein it was 0.045 OD450; with HPV31 VLP protein, 0.047 OD450; with HPV16 VLP protein, 0.048 OD450.
